In patent publication US12540161B2, “Linkers” (BicycleTx Limited, priority 2020, dated 2026):

Assays:
in vitro [1] = settings: rat, plasma, Plasma protein binding (% Unbound) Rat
in vitro [2] = settings: mouse, plasma
[3] = Plasma stability analysis, mouse plasma; settings: plasma, BTCs
Experimental: Pooled frozen plasma was thawed in a water bath at 37° C. Plasma was centrifuged at 4000 rpm for 5 min and the clots were removed if any. The pH will be adjusted to 7.4±0.1 if required. 1 mM stock solution was prepared with DMSO. Propantheline (positive control) was prepared by making a 100 μM working solution by diluting 5 μL of the stock solution (10 mM) with 495 μL ultra pure water. 100 μM working solutions of test compounds were made up by diluting 10 μL of the stock solution (1 mM) with 90 μL DMSO. 98 μL of blank plasma was spiked with 2 μL of dosing solution (100 μM) to achieve 2 μM of the final concentration in duplicate and samples were incubated at 37° C. in a water bath. […] An aliquot of supernatant (150 μL) was transferred from each well before submitting for LC-MS/MS analysis.
The % remaining test compound after incubation in plasma was calculated using following equation: Remaining=100×(PAR at appointed incubation time/PAR at T0 time)
where PAR is the peak area ratio of analyte versus internal standard (IS).
The half-life (T½) was calculated from a log linear plot of concentration versus time.

Cathepsin B = Cathepsin B (Homo sapiens, UniProt P07858); test: Cathepsin B (CatB) cleavage assay; format: biochemical; settings: BTCs; for half-life at 40 μM: read-out: CatB t1/2 (converted)
Experimental: 15 μL of test compound solution (2 mM in DMSO) was added to the incubation plate in duplicate. 30 μL of Cathepsin B stock solution (16 μM) was pre-activated with 1500 μL activation buffer for 10 min at room temperature. The Cathepsin B solution was diluted in 13.17 mL water, then 735 μL activatived enzyme mixture was added to the incubation plate. The mixture was incubated at 37° C. in a waterbath. […] The samples were mixed and centrifuged at 4000 rpm for 20 min. 50 μL of supernatant was taken into a new plate containing 150 μL ultra-pure water and the samples mixed thoroughly before submitting to LC-MS/MS analysis.

in vitro [4] = settings: rat, plasma, pH 7.4
Experimental: (§1) Pooled frozen plasma was thawed in a water bath at 37° C. Plasma was centrifuged at 4000 rpm for 5 min and the clots were removed if any. The pH will be adjusted to 7.4±0.1 if required. 1 mM stock solution was prepared with DMSO. Propantheline (positive control) was prepared by making a 100 μM working solution by diluting 5 μL of the stock solution (10 mM) with 495 μL ultra pure water. 100 μM working solutions of test compounds were made up by diluting 10 μL of the stock solution (1 mM) with 90 μL DMSO. 98 μL of blank plasma was spiked with 2 μL of dosing solution (100 μM) to achieve 2 μM of the final concentration in duplicate and samples were incubated at 37° C. in a water bath. At each time point (0, 1, 2, 4, 6 and 24 hr), 400 μL of 200 ng/mL tolbutamide and labetalol in 100% MeOH was added and mixed thoroughly to precipitate proteins. Sample plates were centrifuged at 4,000 rpm for 15 min. An aliquot of supernatant (150 μL) was transferred from each well before submitting for LC-MS/MS analysis.
(§2) The appointed incubation time points are T0 (0 hr), Tn (n=0, 1, 2, 4, 6, 24 hr). The half-life (T½) was calculated from a log linear plot of concentration versus time.
(§3) When the % remaining value at the maximal incubation time, which was 24 hr in this study, was higher than 75%, it is considered to be within the acceptable experimental variation.

in vivo = settings: male, CD-1, mouse, plasma, intravenous
Experimental: Male CD-1 mice were dosed with each Bicycle Conjugate formulated in 25 mM histidine HCl, 10% sucrose pH 7 via tail vein injection. Serial bleeding (about 80 μL blood/time point) was performed via submadibular or saphenous vein at each time point. All blood samples were immediately transferred into prechilled microcentrifuge tubes containing 2 μL K2-EDTA (0.5M) as anti-coagulant and placed on wet ice. Blood samples were immediately processed for plasma by centrifugation at approximately 4° C., 3000 g. The precipitant including internal standard (350 μL) was immediately added into the 35 μL plasma sample, mixed well and centrifuged at 3220 g, 4° C. for 15 minutes. The supernatant was transferred into pre-labeled polypropylene microcentrifuge tubes, and then quick-frozen over dry ice. The samples were stored at 70° C. or below as needed until analysis. Supernatant samples were mixed with 50 μL water, vortexed well and centrifuged at 3220 g, 4° C. for 15 minutes. A sample of the supernatant was injected for LC-MS/MS analysis using an Acquity UPLC with AB Sciex 6500+ Triple Quad MS in positive ion mode to determine the concentrations of Bicycle Conjugate and released payload. Plasma concentration versus time data were analyzed by non-compartmental approaches using the Phoenix WinNonlin 6.3 software program. C0, Cl, Vdss, T1/2, AUC(0-inf), MRT(0-last), MRT(0-inf) nd graphs of plasma concentration versus time profile were reported.

in vitro [5] = settings: human, plasma, pH 7.4
Experimental: as §1, §2, §3

in vitro [6] = settings: cynomolgus monkey, plasma
in vitro [7] = settings: human, plasma
[8] = pH 7.4, Mouse plasma t1/2 (EDTA), EDTA anticoagulant
[9] = pH 7.4, Mouse plasma t1/2 (Herparin), heparin anticoagulant

Structure (SMILES) | fraction unbound (in vitro [1]) | fraction unbound (in vitro [2]) | half-life at 2 μM [3, 8] [h] | % Parent remaining after incubation with CatB, 0 h (Cathepsin B) [%] | % Parent remaining after incubation with CatB, 1 h (Cathepsin B) [%] | % Parent remaining after incubation with CatB, 2 h (Cathepsin B) [%] | % Parent remaining after incubation with CatB, 4 h (Cathepsin B) [%] | % Parent remaining after incubation with CatB, 6 h (Cathepsin B) [%] | % Parent remaining after incubation with CatB, 24 h (Cathepsin B) [%] | half-life at 40 μM (Cathepsin B) [h] | half-life at 2 μM (in vitro [4]) [h] | half-life at 2 μM [3, 9] [h] | C0 (in vivo) [ng/mL] | Vd (in vivo) [L/kg] | clearance (in vivo) [mL/min/kg] | half-life (in vivo) [h] | half-life at 2 μM (in vitro [5]) [h] | fraction unbound (in vitro [6]) | fraction unbound (in vitro [7])
CC[C@H](C)[C@@H]([C@@H](CC(=O)N1CCC[C@H]1[C@H](OC)[C@@H](C)C(=O)N[C@H](C)[C@@H](O)c1ccccc1)OC)N(C)C(=O)[C@@H](NC(=O)[C@H](C(C)C)N(C)C(=O)OCc1ccc(NC(=O)[C@H](CCN)NC(=O)[C@H](Cc2ccc3ccccc3c2)NC(=O)[C@H](CCC(=O)O)NC(=O)Cn2cc(CCC(=O)NCCC(=O)N(C)CC(=O)N(C)CC(=O)N(C)CC(=O)N(C)CC(=O)N(C)CC(=O)N(C)CC(=O)N(C)CC(=O)N(C)CC(=O)N(C)CC(=O)N(C)CC(=O)N[C@@H](C)C(=O)N[C@H]3CN(C)Cc4cc5cc(c4)CN(C)C[C@@H](C(N)=O)NC(=O)[C@H](C(C)(C)C)NC(=O)[C@H](CC(=O)O)NC(=O)[C@H](Cc4ccc(O)cc4)NC(=O)[C@H](Cc4ccccc4)NC(=O)[C@H](CC(=O)O)NC(=O)[C@H](CCC(=O)O)NC(=O)[C@H](CSC5)NC(=O)[C@@H](C)NC(=O)[C@H](Cc4cccc5ccccc45)NC(=O)[C@H](CCC(=O)O)NC(=O)[C@H](CC(N)=O)NC(=O)[C@@H](C)NC3=O)nn2)cc1)C(C)C [BCY10986, MMAE-PAB-(Dab-2Nal-Glu)-BCY3900] | 0.115 | 0.071 | 50.1 | 100 | 9.7346 | 0 | 0 | 0 | 0 | 0.3 |  |  |  |  |  |  |  |  | 
CC[C@H](C)[C@@H]([C@@H](CC(=O)N1CCC[C@H]1[C@H](OC)[C@@H](C)C(=O)N[C@H](C)[C@@H](O)c1ccccc1)OC)N(C)C(=O)[C@@H](NC(=O)[C@H](C(C)C)N(C)C(=O)OCc1ccc(NC(=O)[C@H](CCN)NC(=O)[C@@H](NC(=O)[C@H](CCC(=O)O)NC(=O)Cn2cc(CCC(=O)NCCC(=O)N(C)CC(=O)N(C)CC(=O)N(C)CC(=O)N(C)CC(=O)N(C)CC(=O)N(C)CC(=O)N(C)CC(=O)N(C)CC(=O)N(C)CC(=O)N(C)CC(=O)N[C@@H](C)C(=O)N[C@H]3CN(C)Cc4cc5cc(c4)CN(C)C[C@@H](C(N)=O)NC(=O)[C@H](C(C)(C)C)NC(=O)[C@H](CC(=O)O)NC(=O)[C@H](Cc4ccc(O)cc4)NC(=O)[C@H](Cc4ccccc4)NC(=O)[C@H](CC(=O)O)NC(=O)[C@H](CCC(=O)O)NC(=O)[C@H](CSC5)NC(=O)[C@@H](C)NC(=O)[C@H](Cc4cccc5ccccc45)NC(=O)[C@H](CCC(=O)O)NC(=O)[C@H](CC(N)=O)NC(=O)[C@@H](C)NC3=O)nn2)C(C)C)cc1)C(C)C [BCY10981, MMAE-PAB-(Dab-Val-Glu)-BCY3900] | 0.417 | 0.288 | > 57.8 | 100 | 0 | 0 | 0 | 0 | 0 | < 0.2 | > 57.8 | > 57.8 | 30700 | 0.15 | 3.9 | 0.6 | 73.8 | 0.459 | 0.653
CC[C@H](C)[C@@H]([C@@H](CC(=O)N1CCC[C@H]1[C@H](OC)[C@@H](C)C(=O)N[C@H](C)[C@@H](O)c1ccccc1)OC)N(C)C(=O)[C@@H](NC(=O)[C@H](C(C)C)N(C)C(=O)OCc1ccc(NC(=O)[C@H](CCN)NC(=O)[C@H](Cc2cccc3ccccc23)NC(=O)[C@H](CCC(=O)O)NC(=O)Cn2cc(CCC(=O)NCCC(=O)N(C)CC(=O)N(C)CC(=O)N(C)CC(=O)N(C)CC(=O)N(C)CC(=O)N(C)CC(=O)N(C)CC(=O)N(C)CC(=O)N(C)CC(=O)N(C)CC(=O)N[C@@H](C)C(=O)N[C@H]3CN(C)Cc4cc5cc(c4)CN(C)C[C@@H](C(N)=O)NC(=O)[C@H](C(C)(C)C)NC(=O)[C@H](CC(=O)O)NC(=O)[C@H](Cc4ccc(O)cc4)NC(=O)[C@H](Cc4ccccc4)NC(=O)[C@H](CC(=O)O)NC(=O)[C@H](CCC(=O)O)NC(=O)[C@H](CSC5)NC(=O)[C@@H](C)NC(=O)[C@H](Cc4cccc5ccccc45)NC(=O)[C@H](CCC(=O)O)NC(=O)[C@H](CC(N)=O)NC(=O)[C@@H](C)NC3=O)nn2)cc1)C(C)C [BCY10985, MMAE-PAB-(Dab-1Nal-Glu)-BCY3900] |  | 0.048 | > 57.8 | 100 | 103.62 | 94.8 | 107 | 92.2 | 86.82 | > 57.8 | > 57.8 | > 57.8 | 26400 | 0.18 | 1 | 2.48 | > 57.8 |  | 0.234
CC[C@H](C)[C@@H]([C@@H](CC(=O)N1CCC[C@H]1[C@H](OC)[C@@H](C)C(=O)N[C@H](C)[C@@H](O)c1ccccc1)OC)N(C)C(=O)[C@@H](NC(=O)[C@H](C(C)C)N(C)C(=O)OCc1ccc(NC(=O)[C@H](CCCNC(N)=O)NC(=O)[C@@H](NC(=O)[C@H](CCC(=O)O)NC(=O)Cn2cc(CCC(=O)NCCC(=O)N(C)CC(=O)N(C)CC(=O)N(C)CC(=O)N(C)CC(=O)N(C)CC(=O)N(C)CC(=O)N(C)CC(=O)N(C)CC(=O)N(C)CC(=O)N(C)CC(=O)N[C@@H](C)C(=O)N[C@H]3CN(C)Cc4cc5cc(c4)CN(C)C[C@@H](C(N)=O)NC(=O)[C@H](C(C)(C)C)NC(=O)[C@H](CC(=O)O)NC(=O)[C@H](Cc4ccc(O)cc4)NC(=O)[C@H](Cc4ccccc4)NC(=O)[C@H](CC(=O)O)NC(=O)[C@H](CCC(=O)O)NC(=O)[C@H](CSC5)NC(=O)[C@@H](C)NC(=O)[C@H](Cc4cccc5ccccc45)NC(=O)[C@H](CCC(=O)O)NC(=O)[C@H](CC(N)=O)NC(=O)[C@@H](C)NC3=O)nn2)C(C)C)cc1)C(C)C [BCY10980, MMAE-PAB-(Cit-Val-Glu)-BCY3900] |  | 0.187 | > 57.8 | 100 | 0 | 0 | 0 | 0 | 0 | < 0.2 | > 57.8 | > 57.8 | 40200 | 0.2 | 4.8 | 0.64 | 40 |  | 
